From publication PMC7439702

Biological target: AbmU (Streptomyces koyangensis SCSIO 5802)
Test: crystal structure

In the case of AbmU (enzyme), the stoichiometry N is reported as 2.
